Test results published in patent publication US20100138941A1 (IMAGENE, published 2010).

Biological target: T1, AIMP1 protein (SEQ ID NO: 1) consisting of 312 amino acids (Homo sapiens (Human), UniProt Q12904 1-312)
T1 construct: also called purified AIMP1 protein; AIMP1 protein antigen
T1 sequence: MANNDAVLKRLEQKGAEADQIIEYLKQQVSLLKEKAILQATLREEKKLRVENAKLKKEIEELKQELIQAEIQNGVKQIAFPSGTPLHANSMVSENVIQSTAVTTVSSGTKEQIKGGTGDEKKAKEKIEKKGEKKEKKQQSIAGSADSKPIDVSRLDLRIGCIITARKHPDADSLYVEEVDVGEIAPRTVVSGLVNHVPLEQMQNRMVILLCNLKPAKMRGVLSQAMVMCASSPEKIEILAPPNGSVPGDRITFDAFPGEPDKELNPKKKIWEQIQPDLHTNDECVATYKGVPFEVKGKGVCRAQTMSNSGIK
Experiment: purified GST-gp96 fragments incubated with AIMP1, Western blot with anti-AIMP1 antibody
Procedure: The purified GST-gp96 fragments were cultured with AIMP1 and analyzed by Western blot using an anti-AIMP1 antibody, and the analysis results are shown in FIG. 16.

B1: GST-gp96-(699-799) (other)
chain: RRIKEDEDDKTVLDLAVVLFETATLRSGYLLPDTKAYGDRIERMLRLSLNIDPDAKVEEEPEEEPEETAEDTTEDTEQDEDEEMDVGTDEEEETAKESTAE
notes: GST-tag fusion purified on GSH agarose; also called domain involved in oligomerization; not shown: GST tag encoded by the pGEX4T3 vector (Amersham Biosciences)
B1: binds.
